Assay [1] concerns the target solubilised human IR-A (human) (UniProt P06213). Kind of assay: SPA competition vs [125I-A14Y]-human insulin, solubilised hIR-A, 0% HSA, relative to human insulin.
Another assay deals with Biotinylated PCSK9 (UniProt Q8NBP7). Kind of assay: PCSK9-LDL-R competitive ELISA (biotinylated PCSK9, coated rhLDL-R), Ki from IC50. On the technique in general: An ELISA detects its analyte on a solid surface through an enzyme-linked reagent.
Assay [2] addresses PCSK9 (10 ug/mL; in-house production) (UniProt Q8NBP7). Kind of assay: cell-based or functional assay.
For assay [3], the target named is solubilised human IR-A (human) (UniProt P06213). Kind of assay: SPA competition vs [125I-A14Y]-human insulin, solubilised hIR-A, 1.5% HSA, relative to human insulin.
Chain of solubilised human IR-A (human) (P06213 other isoform, or with tags, fused parts or gaps limits assumed): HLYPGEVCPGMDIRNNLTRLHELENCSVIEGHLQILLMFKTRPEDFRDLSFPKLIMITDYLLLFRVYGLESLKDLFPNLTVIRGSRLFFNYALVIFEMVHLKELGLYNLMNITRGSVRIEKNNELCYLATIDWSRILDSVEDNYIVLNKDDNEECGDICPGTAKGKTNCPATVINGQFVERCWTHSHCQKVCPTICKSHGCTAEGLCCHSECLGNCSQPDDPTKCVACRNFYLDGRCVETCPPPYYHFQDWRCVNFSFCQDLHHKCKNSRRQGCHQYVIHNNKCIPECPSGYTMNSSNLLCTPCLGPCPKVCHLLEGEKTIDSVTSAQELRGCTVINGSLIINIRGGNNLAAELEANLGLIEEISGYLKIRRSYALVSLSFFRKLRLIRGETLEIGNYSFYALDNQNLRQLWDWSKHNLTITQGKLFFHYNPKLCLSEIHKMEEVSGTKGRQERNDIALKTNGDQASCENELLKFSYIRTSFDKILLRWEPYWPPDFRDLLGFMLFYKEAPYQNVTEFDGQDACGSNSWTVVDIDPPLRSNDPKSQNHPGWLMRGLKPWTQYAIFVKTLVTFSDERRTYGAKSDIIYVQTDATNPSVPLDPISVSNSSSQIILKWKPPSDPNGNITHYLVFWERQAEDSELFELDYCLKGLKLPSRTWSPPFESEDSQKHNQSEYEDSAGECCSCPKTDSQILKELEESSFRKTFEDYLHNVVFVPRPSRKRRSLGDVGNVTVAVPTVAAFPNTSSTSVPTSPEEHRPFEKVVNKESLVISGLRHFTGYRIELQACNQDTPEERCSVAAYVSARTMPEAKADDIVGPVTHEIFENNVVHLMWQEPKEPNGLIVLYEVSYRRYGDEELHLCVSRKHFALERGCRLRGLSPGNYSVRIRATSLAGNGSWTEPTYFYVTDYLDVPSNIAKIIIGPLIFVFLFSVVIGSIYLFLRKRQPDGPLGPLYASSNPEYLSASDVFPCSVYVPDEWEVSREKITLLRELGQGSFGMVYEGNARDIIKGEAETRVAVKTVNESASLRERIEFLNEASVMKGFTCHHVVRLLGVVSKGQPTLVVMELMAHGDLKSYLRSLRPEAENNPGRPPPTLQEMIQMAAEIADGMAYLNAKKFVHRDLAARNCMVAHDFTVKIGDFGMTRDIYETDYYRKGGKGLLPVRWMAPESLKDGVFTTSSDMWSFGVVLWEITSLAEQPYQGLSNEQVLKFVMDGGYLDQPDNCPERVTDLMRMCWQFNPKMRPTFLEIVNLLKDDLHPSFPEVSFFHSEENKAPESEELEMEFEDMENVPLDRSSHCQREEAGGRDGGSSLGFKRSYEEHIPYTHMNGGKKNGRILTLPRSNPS

On to “EGF(A)(301L, 309R, 312E, 321E)-[GAQP]19-Insulin(A14E, B29K(octadecanedioyl-gGlu-2×OEG), desB30)”, for which the hIR-A binding affinity (% rel to HI) in assay [1] is 2.99 % rel to HI; in assay [3], 0.14 % rel to HI. The Ki (usually a measure of affinity in units of concentration, obtained from inhibition or displacement) with Biotinylated PCSK9 stood at 2.12 nM. This substance yielded an LDL uptake EC50 (nM) in HepG2 cells in assay [2] of 123 nM.

On to “EGF(A)(301L, 309R, 312E, 321E, 328K(hexadecanedioyl-gGlu-2×OEG), 330K(hexadecanedioyl-gGlu-2×OEG)) (peptide; modification not given; biotinylated (sites not stated))”, for which the Ki in the assay with Biotinylated PCSK9 came to 1.9 nM.

Take “EGF(A)(301L, 309R, 312E, 321E)-[GAQP]19-Insulin(B3E, B29K(eicosanedioyl-gGlu-2×OEG), desB30)”: the hIR-A binding affinity (% rel to HI) in assay [1] is 4.15 % rel to HI; in assay [3] it was 0.29 % rel to HI. The Ki in the assay with Biotinylated PCSK9 is 1.86 nM.

Turning to “EGF(A)(301L, 309R, 312E, 321E)-[GAQP]6-Insulin(A14E, B29K(eicosanedioyl-gGlu-2×OEG), desB30”, the Ki with Biotinylated PCSK9 is 1.75 nM.

The substance “EGF(A)(301L, 309R, 312E, 321E, 328K(hexadecanedioyl-gGlu-2×OEG), 330K(hexadecanedioyl-gGlu-2×OEG)) (peptide; modification not given)” came in with an LDL uptake EC50 (nM) in HepG2 cells in assay [2] of 152 nM.

For the substance “EGF(A)(301L, 309R, 312E, 321E)-[GAQP]19-Insulin(A14E, B29K(eicosanedioyl-gGlu-2×OEG), desB30)”, the hIR-A binding affinity (% rel to HI) is 2.89 % rel to HI in assay [1] and 0.14 % rel to HI in assay [3]. The substance also had an LDL uptake EC50 (nM) in HepG2 cells in assay [2] of 126 nM.

“EGF(A)(301L, 309R, 312E, 321E)-[GAQP]6-Insulin(A14E, B29K(octadecanedioyl-gGlu-OEG), desB30)” returned a Ki with Biotinylated PCSK9 of 2.07 nM.

As for “EGF(A)(301L, 309R, 312E, 321E)-[GAQP]6-Insulin(A14E, B29K(octadecanedioyl-gGlu-2×OEG), desB30)”, in the assay with Biotinylated PCSK9, the Ki came out at 1.92 nM.

For the origin of these results see patent US20220009989A1.
